Results reported in PMC10847457 (Cell Discovery, 2024).

B1: PW5-535 (antibody, V domains shown)
VH: EVRLVESGGGLVQPGGSLRLSCAASGFTFRNYDIHWVRQTTGKGLEWVSAVGTSGDTYYLDSVKGRFTISREDAKKSVYLQMNSLRAGDTAMYYCVRGDASPDNIYYYMDVWGTGTRVIVSS
VL: DIQVTQSPSPLSASVGDRVTITCRASQTIGKYLNWYHQIPGKAPKLLISAASTLHSGVPSRFSGRGSGTDFTLTISSLQPEDFGTYYCQQSYSSPPWTFGQGTKVEIK
B2: PW5-5 (antibody, V domains shown)
VH: QVQLVQSGAEVKKPGASVKVSCKTSGYTFTDHYMYWVRQAPGQGLEWMGVINPDAGSVTYAQKFQGRVTMTSDTSTSTVYMELSSLRSEDTAVYYCARDLFFIPAANSFDYWGQGTLVTVSS
VL: EIVLTQSPATLSLSPGERATLSCRASQSVSSYLAWYQQKPGQAPRLLIYDATNRATGIPARFSGSGSGTDFTLTISSLEPEDFAVYYCQHRSNWPRMFTFGQGTKLEIK
notes: also called PW5-5 IgG; IgG PW5-5
B3: PW5-570 (antibody, V domains shown)
VH: QMQLVQSGPEVRKPGTSVKVSCRASVFSFDTSAVQWVRQARGQPLEWIGWIVFGSSNTDYAQKFRDRVTITGDMSTGTAYMELSSLRSEDTAVYYCAAPHCNRTNCHDGFDIWGQGTVVTVSS
VL: EIVLTQSPGTLSLSPGERATLSCRASQSVRSGYLGWYQQKPGQAPRLLIYGAYNRATGIPDRFRGSGSGTDFTLTISRLEPEDFVVYYCQQYDRSPWTFGQGTKVEIK
notes: also called PW5-570 IgG; PW5-570 immunoglobulin G

Each binder was assayed against SARS-CoV-2 S trimer (stabilized soluble S2P) (SARS-CoV-2, ancestral (WT, Wuhan-Hu-1 …, UniProt P0DTC2, stabilised)) (assay: ELISA). Settings: both partners purified.

**Q.** Does B1 bind?
**A.** Result: binds

**Q.** Does B2 bind?
**A.** Result: binds

**Q.** Does B3 bind?
**A.** Result: binds
